According to US20240092920A1 (KEYMED BIOSCIENCES, published 2024):

T1: recombinant protein of cynomolgus IL-4Rα extracellular region (cynomolgus monkey)
T1 construct: also called cynoIL-4Rα; cynomolgus monkey IL-4Rα
T1 chain: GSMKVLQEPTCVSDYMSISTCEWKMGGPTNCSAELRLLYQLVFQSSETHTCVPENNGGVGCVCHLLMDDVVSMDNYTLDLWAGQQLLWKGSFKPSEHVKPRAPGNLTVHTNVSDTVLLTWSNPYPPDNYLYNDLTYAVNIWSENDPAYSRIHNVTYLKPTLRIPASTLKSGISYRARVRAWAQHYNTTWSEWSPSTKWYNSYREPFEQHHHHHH

T2: recombinant protein of human IL-4Rα extracellular region (human, UniProt P24394 26-232)
T2 construct: range 26-232; Made in HEK293-6E cells, purified on nickel chelate; Used biotin-labeled on SA probes in the Fortebio assays and unlabeled as ELISA coat; also called hIL-4Rα; IL-4Rα recombinant protein
T2 sequence: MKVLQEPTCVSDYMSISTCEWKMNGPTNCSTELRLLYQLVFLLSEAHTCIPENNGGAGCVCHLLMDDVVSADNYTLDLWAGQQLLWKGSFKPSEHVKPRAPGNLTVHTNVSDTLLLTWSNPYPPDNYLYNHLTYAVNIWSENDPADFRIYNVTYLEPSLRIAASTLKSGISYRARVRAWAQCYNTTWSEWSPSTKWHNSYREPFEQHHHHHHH

T3: hIL-4Rα, full length, on stably transfected HEK293 cells (human, UniProt P24394 26-825)
T3 construct: whole, on cells; also called HEK293-hIL-4Rα
T3 sequence (looked up): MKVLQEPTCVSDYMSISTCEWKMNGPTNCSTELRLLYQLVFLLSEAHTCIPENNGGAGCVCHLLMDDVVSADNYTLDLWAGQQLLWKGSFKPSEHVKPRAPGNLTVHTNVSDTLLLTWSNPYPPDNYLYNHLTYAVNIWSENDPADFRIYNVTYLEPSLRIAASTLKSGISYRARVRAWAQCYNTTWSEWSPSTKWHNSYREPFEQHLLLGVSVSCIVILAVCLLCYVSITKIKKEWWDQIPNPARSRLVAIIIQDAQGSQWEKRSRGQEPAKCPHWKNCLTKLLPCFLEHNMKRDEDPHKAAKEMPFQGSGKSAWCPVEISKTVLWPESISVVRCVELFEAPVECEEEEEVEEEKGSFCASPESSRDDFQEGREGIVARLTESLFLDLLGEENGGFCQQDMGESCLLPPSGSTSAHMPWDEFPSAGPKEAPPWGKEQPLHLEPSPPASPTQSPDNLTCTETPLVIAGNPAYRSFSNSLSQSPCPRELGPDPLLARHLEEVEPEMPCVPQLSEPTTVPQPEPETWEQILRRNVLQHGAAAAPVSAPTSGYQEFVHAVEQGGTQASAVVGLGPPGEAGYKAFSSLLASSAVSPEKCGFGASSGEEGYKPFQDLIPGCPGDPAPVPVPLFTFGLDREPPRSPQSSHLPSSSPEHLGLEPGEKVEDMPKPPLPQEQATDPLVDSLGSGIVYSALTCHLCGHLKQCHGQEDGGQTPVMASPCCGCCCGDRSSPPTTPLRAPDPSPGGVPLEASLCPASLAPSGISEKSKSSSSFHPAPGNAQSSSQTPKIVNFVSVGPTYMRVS


How the values were obtained:
[1] = biological target: T1, recombinant protein of cynomolgus …; experiment: ELISA on coated cynomolgus cynoIL-4Rα (10 ug/ml), HRP-linked secondary antibody, OD450
Method: (§1) 1 ug/ml human hIL-4Rα, 10 ug/ml cynomolgus cynoIL-4Rα, 1 ug/ml mouse mIL-4Rα (Sino Biological, Cat: 80198-R08H) and 1 ug/ml rat-derived ratIL-4Rα (Sino Biological, Cat: 51180-MO8H) are diluted in 0.05 M carbonate coating buffer (pH 9.5) at 4° C. overnight. The solution in the wells is discarded the next day and the wells are washed 3 times with PBS washing buffer. Then PBS solution containing 2% BSA is added for blocking for 2 hours. After washing 3 times with PBS washing buffer, 100 ul of humanized candidate antibodies at different diluted concentrations is added, incubated for 1 h at room temperature, and then washed 3 times with PBS washing buffer; the HRP cross-linked antibody (Jackson Immuno Research) is diluted at 1:10000 with PBS washing buffer and incubated for 1 hour at room temperature. After washing 3 times with PBS washing buffer, 100 ul of TMB substrate solution is added to develop color, and after reaction at room temperature for 10 minutes; the reaction is stopped by the addition of 50 ul of 0.5 M concentrated sulfuric acid solution and the absorbance at 450 nm is read.

[2] = biological target: T2, recombinant protein of human IL-4Rα …; experiment: ELISA on coated human hIL-4Rα (1 ug/ml), HRP-linked secondary antibody, OD450
Method: as §1

[3] = biological target: T3, hIL-4Rα, full length, on stably …; experiment: flow cytometry blocking assay on 293-hIL-4Rα stably transfected cells; blocked ligand: biotin-labeled IL-4 at 0.15 ug/ml, SA-PE
Method: Every 1*10⁶ cells corresponds to 100 μl of 3% BSA/PBS solution, and the solution is blocked at 4° C. for 20 minutes. The prepared cells are added to a 96-well U-type plate at a volume of 100 μl/well, and centrifuged at 1100 rpm for 3 minutes, and the supernatant is discarded; and the primary antibody solution is added and incubated for 1 hour on ice. Purified candidate antibodies are made into 5 concentration series with a starting concentration of 100 nM, and diluted according to a series of 1:5. After incubation with the primary antibody solution, additional 0.5% BSA/PBS is added to a volume of 150 μl, centrifuged at 1100 rpm for 3 minutes, and the supernatant is discarded. 150 μl of 0.5% BSA/PBS is further added, centrifuged at 1100 rpm for 3 minutes, and the supernatant is discarded; biotin-labeled IL-4 at a final concentration of 0.15 ug/ml is added and incubated on ice for 45 minutes. The secondary antibody SA-PE is diluted at 1:300 with 1% BSA/PBS; 40 μl of the secondary antibody solution is added to each well and incubated on ice for 45 minutes. After incubation with the secondary antibody solution, additional 0.5% BSA/PBS is added to a volume of 150 μl, centrifuged at 1100 rpm for 3 minutes, and the supernatant is discarded; 150 μl of 0.5% BSA/PBS is further added, centrifuged at 1100 rpm for 3 minutes, and the supernatant is discarded. 20-100 μl of PBS is added to resuspend the cells to 1*10⁶ cells per ml, and the obtained suspension is loaded onto a flow cytometer (I-Que screener). After opening the instrument and operating system according to the correct process, and setting the correct parameters, the cells are loaded to the test plate, and the fluorescent signal is detected, analysis is performed using Graph Pad Prism 5 software.

[4] = biological target: T3, hIL-4Rα, full length, on stably …; experiment: flow cytometry on 293-hIL-4Rα stably transfected cells, anti-human IgG Fab'2-AF647
Method: Every 1*10⁶ cells corresponds to 100 μl of 3% BSA/PBS solution, and the solution is blocked at 4° C. for 20 minutes. The prepared cells are added to a 96-well U-type plate at a volume of 100 μl/well, and centrifuged at 1100 rpm for 3 minutes, and the supernatant is discarded; and the primary antibody solution is added and incubated for 1 hour on ice. […] After incubation with the primary antibody solution, additional 0.5% BSA/PBS is added to a volume of […], centrifuged at 1100 rpm for 3 minutes, and the supernatant is discarded. 150 μl of 0.5% BSA/PBS is further added, centrifuged at 1100 rpm for 3 minutes, and the supernatant is discarded; before adding a secondary antibody anti-human IgG, Fab′2-AF647, same is diluted at 1:300 with 1% BSA/PBS. 40 μl of the secondary antibody solution is added to each well and incubated on ice for 45 minutes. After incubation with the secondary antibody solution, additional 0.5% BSA/PBS is added to a volume of 150 μl, centrifuged at 1100 rpm for 3 minutes, and the supernatant is discarded; 150 μl of 0.5% BSA/PBS is further added, centrifuged at 1100 rpm for 3 minutes, and the supernatant is discarded; 20-100 μl of PBS is added to resuspend the cells to 1*10⁶ cells per ml, and the obtained suspension is loaded onto a flow cytometer (I-Que screener). After opening the instrument and operating system according to the correct process, and setting the correct parameters, the cells are loaded to the test plate, and the fluorescent signal is detected, analysis is performed using Graph Pad Prism 5 software.

| Binder | EC50 [1] | EC50 [2] | IC50 (read off the curve) [3] | EC50 (read off the curve) [4] |
| --- | --- | --- | --- | --- |
| 1022/1013 (antibody, V domains shown, Humanized candidate antibody; same remark on Fab/IgG wording as for 1021/1013; also called 1022/1013-IgG; VH1022 with VL1013) VH: EVQLLESGGGLVQPGGSLRLSCAASGFTFSRYAMSWVRQAPGKGLEWVSTISSGGSYTNYADSVKGRFTISRDNVKNTLYLQMNSLRAEDTAVYYCARATARATEFAYWGQGTLVTVSS VL: DIQMTQSPSSLSASVGDRVTITCQASQDISNYLNWYQQKPGKAPKLLIYYTSRLHSGVPSRFSGSGSGTDYTLTISSLQPEDFATYFCQQGNTLPLTFGGGTKVEIK | 1.16 nM | 0.067 nM | ~0.09 nM | – |
| 1026/1011 (antibody, V domains shown, Humanized candidate antibody; same remark on Fab/IgG wording as for 1021/1013; also called 1026/1011-IgG; VH1026 with VL1011) VH: QVQLVQSGAEVKKPGASVKMSCKASVYTFTGYNMHWVRQAPGQGLEWIGGLHPGNGDTSYNQKFKDRATLTADRSSNTAYMELSSLRSEDTAVYYCALTTAGRAWFAYWGQGTLVTVSS VL: DIQMTQSPSSLSASVGDRVTITCQASQDISNYLNWYQQKPGKAPKLLIYYTSRLHSGVPSRFSGSGSGTDYTFTISSLQPEDIATYFCQQGNTLPWTFGGGTKVEIK | 89.2 nM | 0.06 nM | ~0.2 nM | ~0.07 nM |
| 1026/1012 (antibody, V domains shown, Humanized candidate antibody; same remark on Fab/IgG wording as for 1021/1013; also called 1026/1012-IgG; VH1026 with VL1012) VH: QVQLVQSGAEVKKPGASVKMSCKASVYTFTGYNMHWVRQAPGQGLEWIGGLHPGNGDTSYNQKFKDRATLTADRSSNTAYMELSSLRSEDTAVYYCALTTAGRAWFAYWGQGTLVTVSS VL: DIQMTQSPSSLSASVGDRVTITCRASQDISNYLNWYQQKPGKAPKLLIYYTSRLHSGVPSRFSGSGSGTDYTLTISSLQPEDFATYFCQQGNTLPWTFGGGTKVEIK | 13.2 nM | 0.017 nM | ~0.2 nM | ~0.06 nM |
